According to article PMC7868722:

target: human alpha-thrombin (plasma) (Homo sapiens, UniProt P00734;P00734 328-363;364-622); test: MST

| Binder | Kd |
| --- | --- |
| GGTTGGTGTGGTTGG (structured_DNA) [TBA (HD1)] | 20.2 ± 1.3 nM |
| GGTTGGTGTGGTTGG (structured_DNA, T3: N3-carboxymethyl-dT amide with L-alanine) [3Ala] | 21.4 ± 2.8 nM |
| GGTTGGTGTGGTTGG (structured_DNA, T3: N3-propargyl-dT clicked to 1-beta-D-glucopyranosyl azide (printed glycopyranosyl)) [3G] | 9.8 ± 0.6 nM |
| GGTTGGTGTGGTTGG (structured_DNA, T3: N3-propargyl-dT clicked to 1-beta-D-lactopyranosyl azide) [3L] | 11.6 ± 0.5 nM |
| GGTTGGTGTGGTTGG (structured_DNA, T12: N3-carboxymethyl-dT amide with L-alanine) [12Ala] | 51 ± 3.8 nM |
| GGTTGGTGTGGTTGG (structured_DNA, T12: N3-carboxymethyl-dT amide with L-tryptophan) [12Trp] | 67.3 ± 12.1 nM |
| GGTTGGTGTGGTTGG (structured_DNA, T12: N3-carboxymethyl-dT amide with L-leucine) [12Leu] | 72.2 ± 0.9 nM |
| GGTTGGTGTGGTTGG (structured_DNA, T12: N3-carboxymethyl-dT amide with L-serine) [12Ser] | 86.6 ± 4.5 nM |
| GGTTGGTGTGGTTGG (structured_DNA, T12: N3-carboxymethyl-dT amide with L-phenylalanine) [12Phe] | 99.1 ± 6.3 nM |
| GGTTGGTGTGGTTGG (structured_DNA, T12: N3-carboxymethyl-dT amide) [12Amide] | 30.6 ± 6.1 nM |
| GGTTGGTGTGGTTGG (structured_DNA, T12: N3-propargyl-dT clicked to 1-beta-D-glucopyranosyl azide (printed glycopyranosyl)) [12G] | 20.7 ± 2.8 nM |
| GGTTGGTGTGGTTGG (structured_DNA, T12: N3-propargyl-dT clicked to 1-beta-D-lactopyranosyl azide) [12L] | 27.2 ± 3 nM |
| GGTTGGTGTGGTTGG (structured_DNA, T3: N3-carboxymethyl-dT amide with L-leucine) [3Leu] | 10.9 ± 0.2 nM |
| GGTTGGTGTGGTTGG (structured_DNA, T3: N3-carboxymethyl-dT amide with L-serine) [3Ser] | 14.6 ± 0.3 nM |
| GGTTGGTGTGGTTGG (structured_DNA, T3: N3-carboxymethyl-dT amide with L-phenylalanine) [3Phe] | 22.6 ± 4.8 nM |
| GGTTGGTGTGGTTGG (structured_DNA, T3: N3-carboxymethyl-dT amide) [3Amide] | 29.2 ± 0.4 nM |
| GGTTGGTGTGGTTGG (structured_DNA, T3: N3-aminoalkyl-dT benzoyl amide) [3Bz] | 30 ± 6.6 nM |
| GGTTGGTGTGGTTGG (structured_DNA, T3: N3-aminoalkyl-dT p-nitrobenzoyl amide) [3NB] | 164 ± 3.5 nM |
| GGTTGGTGTGGTTGG (structured_DNA, T3: N3-aminoalkyl-dT nicotinoyl amide) [3Nic] | 27.1 ± 4.2 nM |
